Reference: patent US20080057063A1
Blank lines part the entries; values can stand above or below the substance they belong to.

Tests used:
[1] = target: cynomolgus β6 (HEK-293 cells transfected with cynomolgus β6 alone) (cynomolgus); assay: FACS, HEK-293 transfected with cynomolgus β6
[2] = target: mouse αVβ6 on cells (mouse) (UniProt P43406); assay: FACS, K562 cells expressing mouse αVβ6 (parental 46)
[3] = target: mouse αVβ6 on cells (mouse) (UniProt P43406); assay: FACS, HEK-293 transfected with mouse αVβ6
[4] = target: α4β1 integrin (on J6.77 cells) (UniProt P13612); assay: cell-based or functional assay
[5] = target: cynomolgus αVβ6 on cells (cynomolgus); assay: FACS, HEK-293 transfected with cynomolgus αVβ6
[6] = target: cynomolgus αVβ6 on cells (cynomolgus); assay: FACS, K562 cells expressing cynomolgus αVβ6 (parental 46)
[7] = target: cynomolgus αV (HEK-293 cells transfected with cynomolgus αV alone) (cynomolgus); assay: FACS, HEK-293 transfected with cynomolgus αV
[8] = target: mouse αV (HEK-293 cells transfected with mouse αV alone) (mouse) (UniProt P43406); assay: FACS, HEK-293 transfected with mouse αV
[9] = target: mouse β6 (HEK-293 cells transfected with mouse β6 alone) (mouse) (UniProt Q9Z0T9); assay: FACS, HEK-293 transfected with mouse β6
[10] = target: cynomolgus αVβ6 on cells (cynomolgus); assay: FACS, HEK-293 transfected with cynomolgus αV and β6, day 2
[11] = target: human αV on parental A375M cells, which express αVβ3 and αVβ5, but not αVβ6 (human) (UniProt P06756); assay: cell-based or functional assay
[12] = target: α5β1 integrin (on K562 cells) (UniProt P08648); assay: cell-based or functional assay
[13] = target: human αV on parental A375M cells, which express αVβ3 and αVβ5, but not αVβ6 (human) (UniProt P06756); assay: FACS, parental A375M cells, day 2
[14] = target: cynomolgus αVβ6 on cells (cynomolgus); assay: FACS, HEK-293 transfected with cynomolgus αV and β6, day 1
[15] = target: human αV on parental A375M cells, which express αVβ3 and αVβ5, but not αVβ6 (human) (UniProt P06756); assay: FACS, parental A375M cells, day 1
[16] = target: mouse αVβ6 on cells (mouse) (UniProt P43406); assay: FACS, K562 cells expressing mouse αVβ6 (parental 12)
[17] = target: cynomolgus αVβ6 on cells (cynomolgus); assay: FACS, K562 cells expressing cynomolgus αVβ6 (parental 12)
[18] = target: cynomolgus αVβ6 on cells (cynomolgus); assay: FACS, K562 cells expressing cynomolgus αVβ6 (parental 23)
[19] = target: mouse αVβ6 on cells (mouse) (UniProt P43406); assay: FACS, K562 cells expressing mouse αVβ6 (parental 23)
[20] = target: cynomolgus αVβ6 on cells (cynomolgus); assay: FACS, K562 cells expressing cynomolgus αVβ6 (parental 15)
[21] = target: mouse αVβ6 on cells (mouse) (UniProt P43406); assay: FACS, K562 cells expressing mouse αVβ6 (parental 15)
[22] = target: human αVβ6 integrin on cells (human) (UniProt P06756); assay: cell-based or functional assay
[23] = target: human αVβ6 integrin on cells (human) (UniProt P06756); assay: FMAT, HEK 293 cells overexpressing αVβ6, 1 ug/mL
soluble αVβ6 (human) = soluble αVβ6 (human) (UniProt P06756); assay: ELISA on coated soluble αVβ6, 1 ug/mL

Sequence of human αVβ6 integrin on cells (human) (P06756 31-1048, chain 1 of 2): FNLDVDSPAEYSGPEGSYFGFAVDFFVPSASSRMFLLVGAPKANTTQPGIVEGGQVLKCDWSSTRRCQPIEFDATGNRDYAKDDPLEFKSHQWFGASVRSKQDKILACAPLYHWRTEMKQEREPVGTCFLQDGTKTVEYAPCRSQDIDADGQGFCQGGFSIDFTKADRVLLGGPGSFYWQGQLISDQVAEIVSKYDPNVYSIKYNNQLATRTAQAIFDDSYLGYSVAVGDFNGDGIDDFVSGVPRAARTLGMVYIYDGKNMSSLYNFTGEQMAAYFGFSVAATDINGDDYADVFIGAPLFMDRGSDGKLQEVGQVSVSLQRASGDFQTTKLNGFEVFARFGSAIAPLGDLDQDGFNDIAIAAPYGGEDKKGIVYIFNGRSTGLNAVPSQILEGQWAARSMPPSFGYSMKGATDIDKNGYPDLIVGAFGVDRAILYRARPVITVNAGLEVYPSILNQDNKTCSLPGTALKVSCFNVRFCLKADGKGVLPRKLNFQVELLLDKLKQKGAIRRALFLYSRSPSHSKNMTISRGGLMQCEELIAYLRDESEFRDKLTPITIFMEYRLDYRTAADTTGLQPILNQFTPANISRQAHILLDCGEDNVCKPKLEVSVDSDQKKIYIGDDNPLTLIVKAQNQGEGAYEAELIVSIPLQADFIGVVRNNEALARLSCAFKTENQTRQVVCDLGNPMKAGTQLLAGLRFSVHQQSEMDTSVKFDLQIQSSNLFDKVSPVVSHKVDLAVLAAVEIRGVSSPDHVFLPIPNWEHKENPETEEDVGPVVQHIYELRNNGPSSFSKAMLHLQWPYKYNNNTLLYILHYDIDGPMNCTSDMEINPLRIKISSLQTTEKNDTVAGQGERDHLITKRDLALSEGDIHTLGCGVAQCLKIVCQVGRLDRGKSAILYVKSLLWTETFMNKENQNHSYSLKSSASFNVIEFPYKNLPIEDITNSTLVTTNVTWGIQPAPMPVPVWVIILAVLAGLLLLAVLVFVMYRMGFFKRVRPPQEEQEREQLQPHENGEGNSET
Sequence of human αVβ6 integrin on cells (human) (P18564 22-788, chain 2 of 2, further chain): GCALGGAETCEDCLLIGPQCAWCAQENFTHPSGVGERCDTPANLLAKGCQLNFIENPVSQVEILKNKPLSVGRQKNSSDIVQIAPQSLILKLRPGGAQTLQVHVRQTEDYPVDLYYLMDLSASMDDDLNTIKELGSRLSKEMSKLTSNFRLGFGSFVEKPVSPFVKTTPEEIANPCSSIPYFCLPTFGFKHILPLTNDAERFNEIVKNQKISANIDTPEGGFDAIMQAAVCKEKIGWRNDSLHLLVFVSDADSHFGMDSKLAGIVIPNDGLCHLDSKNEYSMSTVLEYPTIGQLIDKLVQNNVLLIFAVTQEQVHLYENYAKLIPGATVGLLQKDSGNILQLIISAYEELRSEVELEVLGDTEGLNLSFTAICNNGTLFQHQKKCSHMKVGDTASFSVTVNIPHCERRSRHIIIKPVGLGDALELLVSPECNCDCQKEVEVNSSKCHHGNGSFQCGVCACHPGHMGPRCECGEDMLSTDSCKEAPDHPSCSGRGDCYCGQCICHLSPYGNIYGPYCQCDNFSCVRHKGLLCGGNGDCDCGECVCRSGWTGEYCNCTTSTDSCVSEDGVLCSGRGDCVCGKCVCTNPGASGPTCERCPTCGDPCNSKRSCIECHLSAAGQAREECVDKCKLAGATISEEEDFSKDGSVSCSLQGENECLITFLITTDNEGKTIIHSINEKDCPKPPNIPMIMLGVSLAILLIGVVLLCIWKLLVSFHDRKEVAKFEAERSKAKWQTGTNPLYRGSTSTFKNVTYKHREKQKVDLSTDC
Sequence of human αV on parental A375M cells, which express αVβ3 and αVβ5, but not αVβ6 (human) (P06756 31-1048 A375M): as the sequence (P06756 31-1048, chain 1 of 2) above, with A345M counted along it
Sequence of mouse αVβ6 on cells (mouse) (P43406 31-1044, chain 1 of 2): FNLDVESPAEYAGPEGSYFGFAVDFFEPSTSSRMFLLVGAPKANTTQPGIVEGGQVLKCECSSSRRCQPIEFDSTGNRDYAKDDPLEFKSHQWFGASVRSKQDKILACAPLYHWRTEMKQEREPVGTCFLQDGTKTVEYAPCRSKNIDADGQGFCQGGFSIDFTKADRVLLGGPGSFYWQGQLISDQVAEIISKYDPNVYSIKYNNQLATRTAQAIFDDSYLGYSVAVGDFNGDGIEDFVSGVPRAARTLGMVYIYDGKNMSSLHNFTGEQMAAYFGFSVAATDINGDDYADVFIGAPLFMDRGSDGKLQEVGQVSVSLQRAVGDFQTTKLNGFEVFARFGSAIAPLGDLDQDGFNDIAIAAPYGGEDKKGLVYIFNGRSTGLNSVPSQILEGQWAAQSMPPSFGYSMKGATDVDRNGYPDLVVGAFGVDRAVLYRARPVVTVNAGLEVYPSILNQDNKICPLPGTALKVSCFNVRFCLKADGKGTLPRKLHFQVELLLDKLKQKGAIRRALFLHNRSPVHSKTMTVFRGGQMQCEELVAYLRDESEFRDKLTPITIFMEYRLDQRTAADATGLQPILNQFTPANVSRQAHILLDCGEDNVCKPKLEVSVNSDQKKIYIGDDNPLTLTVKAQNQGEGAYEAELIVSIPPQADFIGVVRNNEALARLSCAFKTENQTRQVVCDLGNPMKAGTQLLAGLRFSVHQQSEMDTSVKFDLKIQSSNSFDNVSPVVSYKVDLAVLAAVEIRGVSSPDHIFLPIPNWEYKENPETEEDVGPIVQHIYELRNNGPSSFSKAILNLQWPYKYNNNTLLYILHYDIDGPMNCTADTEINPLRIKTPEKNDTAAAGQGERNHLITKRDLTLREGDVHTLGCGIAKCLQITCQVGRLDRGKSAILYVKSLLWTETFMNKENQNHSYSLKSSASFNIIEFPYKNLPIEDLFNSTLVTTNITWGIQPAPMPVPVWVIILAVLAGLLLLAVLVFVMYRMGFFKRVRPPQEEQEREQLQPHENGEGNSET
Sequence of mouse αVβ6 on cells (mouse) (Q9Z0T9 22-787, chain 2 of 2, further chain): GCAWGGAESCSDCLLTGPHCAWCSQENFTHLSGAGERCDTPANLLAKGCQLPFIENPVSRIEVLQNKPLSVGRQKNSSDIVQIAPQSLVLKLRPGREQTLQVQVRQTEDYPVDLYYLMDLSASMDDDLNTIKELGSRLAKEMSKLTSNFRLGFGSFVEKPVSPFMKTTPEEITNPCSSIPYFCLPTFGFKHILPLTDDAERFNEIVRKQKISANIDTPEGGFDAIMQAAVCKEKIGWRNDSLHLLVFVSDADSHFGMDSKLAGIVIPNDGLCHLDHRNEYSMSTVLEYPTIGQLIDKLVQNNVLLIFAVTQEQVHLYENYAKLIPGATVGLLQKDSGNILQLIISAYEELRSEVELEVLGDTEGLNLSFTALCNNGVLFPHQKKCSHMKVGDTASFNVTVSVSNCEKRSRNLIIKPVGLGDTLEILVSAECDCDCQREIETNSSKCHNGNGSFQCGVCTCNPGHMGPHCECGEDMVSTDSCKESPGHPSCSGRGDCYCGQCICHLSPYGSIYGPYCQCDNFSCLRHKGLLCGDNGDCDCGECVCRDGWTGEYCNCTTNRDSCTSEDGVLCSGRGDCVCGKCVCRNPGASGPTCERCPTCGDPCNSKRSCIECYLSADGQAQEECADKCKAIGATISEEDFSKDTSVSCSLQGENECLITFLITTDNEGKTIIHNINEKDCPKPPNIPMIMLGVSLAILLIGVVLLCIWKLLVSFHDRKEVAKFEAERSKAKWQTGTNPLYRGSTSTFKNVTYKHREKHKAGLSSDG
Sequence of mouse β6 (HEK-293 cells transfected with mouse β6 alone) (mouse) (Q9Z0T9 22-787): as the sequence (Q9Z0T9 22-787, chain 2 of 2, further chain) above
Sequence of mouse αV (HEK-293 cells transfected with mouse αV alone) (mouse) (P43406 31-1044): as the sequence (P43406 31-1044, chain 1 of 2) above

Substance: Human IgG1 (antibody)
- percent of cells shifted [1]: 1%
- Geometric Mean Shift [2]: 108
- percent of cells shifted [3]: 1%
- Percent Inhibition (J6.77 adhesion to CS-1 peptide of fibronectin, 5 ug/ml) [4]: 26%
- percent of cells shifted [5]: 0%
- Geometric Mean Shift [6]: 54
- percent of cells shifted [7]: 1%
- percent of cells shifted [8]: 1%
- percent of cells shifted [9]: 0%

Substance: Human IgG4 (antibody)
- Percent Inhibition (J6.77 adhesion to CS-1 peptide of fibronectin, 5 ug/ml) [4]: 15%

Substance: Human IgG Isotype Control (antibody)
- % Cells Shifted [10]: 0%
- GeoMean [10]: 7.39
- Percent Inhibition (A375M adhesion to osteopontin peptide, 5 µg/ml) [11]: 3%
- % Inhibition (K562 adhesion to fibronectin) [12]: -12%
- Percent Inhibition (K562 adhesion to FN9-10 peptide of fibronectin, 5 µg/ml) [12]: 11%
- % Cells Shifted [13]: 1%
- GeoMean [13]: 7.23
- % Cells Shifted [14]: 1%
- GeoMean [14]: 9.54
- % Cells Shifted [15]: 5%
- GeoMean [15]: 1.66

Substance: Mouse IgG1 (antibody)
- Geometric Mean Shift [16]: 20
- Geometric Mean Shift [17]: 13

Substance: Mouse IgG Control (antibody)
- Percent Inhibition (A375M adhesion to osteopontin peptide, 5 µg/ml) [11]: 5%

Results, then the substance that gave them:

- Percent Inhibition (J6.77 adhesion to CS-1 peptide of fibronectin, 5 ug/ml) [4]: 13%
Substance: Human IgG2 (antibody)

- % Cells Shifted [10]: 0%
- GeoMean [10]: 11.2
- % Cells Shifted [13]: 3%
- GeoMean [13]: 11.2
- % Cells Shifted [14]: 1%
- GeoMean [14]: 8.85
- % Cells Shifted [15]: 4%
- GeoMean [15]: 1.67
Substance: Mouse IgG2 with Murine Secondary Antibody

- Geometric Mean Shift [18]: 25
- Geometric Mean Shift [19]: 36
Substance: Mouse IgG2a (antibody)

- percent of cells shifted [1]: 5%
- Geometric Mean Shift [20]: 84
- Geometric Mean Shift [21]: 122
- % Cells Shifted [10]: 11%
- GeoMean [10]: 28.1
- percent of cells shifted [3]: 45%
- Estimated IC50, n = 1 (HT29 adhesion to TGFβLAP) [22]: 0.226 µg/mL
- Estimated IC50, n = 2 (HT29 adhesion to TGFβLAP) [22]: 0.185 µg/mL
- Estimated IC50, n = 3 (HT29 adhesion to TGFβLAP) [22]: 0.286 µg/mL
- percent of cells shifted [5]: 20%
- % Cells Shifted [13]: 5%
- GeoMean [13]: 15.4
- % Cells Shifted [14]: 42%
- GeoMean [14]: 55.5
- FMAT Count [23]: 67
- FMAT FL1 [23]: 659
- FMAT FL1 × Count [23]: 44200
- % Cells Shifted [15]: 30%
- GeoMean [15]: 2.03
- percent of cells shifted [7]: 0%
- ELISA OD (soluble αVβ6 (human)): 6
- percent of cells shifted [8]: 1%
- percent of cells shifted [9]: 11%
Substance: murine αVβ6 antibody (Cat#MAB2077z, Chemicon)
